Article PMC1500806, “Carrageenan Is a Potent Inhibitor of Papillomavirus Infection” (PLoS Pathogens, 2006)

Key:
HPV16 PsV = type: cell-based, human papillomavirus; conditions: HeLa cells, nonpolysaccharide compounds, dash = no inhibition at noncytotoxic doses
Experimental: Various candidate HPV infection inhibitors were tested using a PsV-based inhibition assay. The assay uses flow cytometric analysis to assess the inhibition of PsV-mediated delivery of a green fluorescent protein (GFP) reporter plasmid into HeLa cells. HPV16, an exceptionally oncogenic genital HPV type, was chosen as a model HPV for initial experiments.
(§1) Compounds were tested using a previously described PsV-based papillomavirus inhibition assay. Briefly, HeLa cells were plated at 6,000 cells/well in 50 μl of medium in 96-well plates. Candidate inhibitors were dissolved at 1–10 mg/ml (or reconstituted as directed by manufacturer) in sterile water or appropriate solvent, then subjected to a ten-point three-fold serial dilution covering an appropriate concentration range. Diluted candidate inhibitor (50 μl) was added to preplated HeLa cells, followed by 50 μl of diluted PsV stock. The cells were incubated for 24 h, fed by addition of 100 μl of DMEM-10, then subjected to flow cytometric analysis 48–56 h after infection. IC50 values and 95% CI were determined using Prism (GraphPad Software, San Diego, California, United States) to calculate a variable slope sigmoidal dose-response curve.
PsV doses were calibrated such that between 5% and 20% of cells scored as GFP^+ when no inhibitors were added. […] HPV5 PsV infection of HeLa cells was performed with a dose of 35 ng/ml L1. […]

HeLa cells = experiment: Cytotoxicity (WST-1 turnover and/or cell morphology); type: cell-based; conditions: >50% reduction in WST-1 turnover and/or altered cell morphology
Experimental: as §1
Cytotoxicity was defined as a >50% reduction in the net turnover of the metabolic substrate WST-1 (Roche, Indianapolis, Indiana, United States) and/or by the appearance of dramatic alterations in the microscopic appearance of cell morphology at the time of harvest.

B1: Lactoferrin (protein, UniProt P24627 20-708, looked up)
Lactotransferrin: APRKNVRWCTISQPEWFKCRRWQWRMKKLGAPSITCVRRAFALECIRAIAEKKADAVTLDGGMVFEAGRDPYKLRPVAAEIYGTKESPQTHYYAVAVVKKGSNFQLDQLQGRKSCHTGLGRSAGWIIPMGILRPYLSWTESLEPLQGAVAKFFSASCVPCIDRQAYPNLCQLCKGEGENQCACSSREPYFGYSGAFKCLQDGAGDVAFVKETTVFENLPEKADRDQYELLCLNNSRAPVDAFKECHLAQVPSHAVVARSVDGKEDLIWKLLSKAQEKFGKNKSRSFQLFGSPPGQRDLLFKDSALGFLRIPSKVDSALYLGSRYLTTLKNLRETAEEVKARYTRVVWCAVGPEEQKKCQQWSQQSGQNVTCATASTTDDCIVLVLKGEADALNLDGGYIYTAGKCGLVPVLAENRKSSKHSSLDCVLRPTEGYLAVAVVKKANEGLTWNSLKDKKSCHTAVDRTAGWNIPMGLIVNQTGSCAFDEFFSQSCAPGADPKSRLCALCAGDDQGLDKCVPNSKEKYYGYTGAFRCLAEDVGDVAFVKNDTVWENTNGESTADWAKNLNREDFRLLCLDGTRKPVTEAQSCHLAVAPNHAVVSRSDRAAHVKQVLLHQQALFGKNGKNCPDKFCLFKSETKNLLFNDNTECLAKLGGRPTYEEYLGTEYVTAIANLKKCSTSPLLEACAFLTR
IC50 (HPV16 PsV): 13 µg/mL
Cytotoxicity (HeLa cells): >780 µg/mL
